Measured values from the RNAGym collection of RNA variant scans (doi:10.1021/acssynbio.7b00057).

B1: Pistol ribozyme (parent)
chain: GGGUCGUUGUUCCAUAAUCGCGUGGAUAUGGCACGCAAGUUUCUACCGGGCACCGUAAAUGUCCGACUGGAGCCGUUCGGGCGGCUAUAAACAGACCUCAGGCCCGAAGCGUGGCGGCACCUGCCGCCGGUGGUAAAAAAGAUCGGAAGAGCACACGUCU

Variants of: B1
Assay: aptazyme ON/OFF ratio, guanine; higher = stronger switching; co-transcriptional cleavage with and without guanine

Aptazyme ON/OFF ratio, 1.3:
U7A U8A G9A U11G C12G

Aptazyme ON/OFF ratio, 1.08:
U7A U8A G9A U11C C12U C13U
U7A U8A G9C U10A U11G C12A C13U
U7A U8A G9A U11G C12A C13A

Aptazyme ON/OFF ratio, 1.09:
U7A U8A G9A U11C C12G C13U
U7A U8A G9C U10C U11A C12U C13U
U7A U8A G9C U10A C12U C13A
U7A U8A G9C U10A U11A C13G
U7A U8A G9A U11G C12A C13U

Aptazyme ON/OFF ratio, 1:
U7A U8A G9C U10C U11C C12A C13A
U7A U8A G9C U10C C13G

Aptazyme ON/OFF ratio, 1.27:
U7A U8A G9C U10A U11C C12G C13U
U7A U8A G9C U10A
U7A U8A G9C U10A U11A C12G
U7A U8A G9C U10A U11A C13U

Aptazyme ON/OFF ratio, 1.13:
U7A U8A G9C U10A U11C C12U C13A
U7A U8A G9C U10A U11C C12A
U7A U8A G9C U10A U11A C12A
U7A U8A G9C U10C U11A C13U
U7A U8A G9C U10A U11A C12U C13U
U7A U8A G9C U10A C12G C13G
U7A U8A G9C C13U
U7A U8A G9C C12A C13G

Aptazyme ON/OFF ratio, 1.17:
U7A U8A G9C U10A U11G C13A
U7A U8A G9A U11C C12A C13A
U7A U8A G9C C12G C13G
U7A U8A G9C C12A C13A
U7A U8A G9C U10A U11G C12U C13A

Aptazyme ON/OFF ratio, 1.24:
U7A U8A G9C U10A U11G C13U
U7A U8A G9A U11C C12U C13A
U7A U8A G9C U10A U11G
U7A U8A G9C C12A C13U

Aptazyme ON/OFF ratio, 1.21:
U7A U8A G9C U10A C13A
U7A U8A G9A U11C C12U C13G
U7A U8A G9C U10A U11A

Aptazyme ON/OFF ratio, 1.05:
U7A U8A G9C U10C U11A C12G C13A
U7A U8A G9C U10A U11C C12U
U7A U8A G9C U10A U11C C13G
U7A U8A G9C U10C U11C C12U C13U
U7A U8A G9C U10C C12G C13G
U7A U8A G9C U10C U11C C12G
U7A U8A G9C U10C U11C C12A
U7A U8A G9C U10A U11G C12A

Aptazyme ON/OFF ratio, 1.07:
U7A U8A G9C U10A C13G
U7A U8A G9C U10A U11C C13A
U7A U8A G9C U10C C12U C13U
U7A U8A G9C U10C C12U
U7A U8A G9C U10C U11A C12U
U7A U8A G9A U11A C12U C13A
U7A U8A G9C U10A U11G C12A C13A
U7A U8A G9C U10A U11A C12A C13G

Aptazyme ON/OFF ratio, 1.32:
U7A U8A G9A U11G C12G C13U

Aptazyme ON/OFF ratio, 1.23:
U7A U8A G9C U10A U11A C12G C13G
U7A U8A G9A U11A C12U C13G
U7A U8A G9C U10A U11A C13A
U7A U8A G9C C12U C13G

Aptazyme ON/OFF ratio, 1.26:
U7A U8A G9C C12U
U7A U8A G9A U11G C12U C13U

Aptazyme ON/OFF ratio, 1.11:
U7A U8A G9C U10A U11C C12U C13U
U7A U8A G9A U11A C13G
U7A U8A G9C U10A U11G C13G
U7A U8A G9A U11G C12A
U7A U8A G9C U10A C12A C13A
U7A U8A G9C U10A U11G C12U C13G
U7A U8A G9A U11G C12A C13G

Aptazyme ON/OFF ratio, 0.719:
U7A U8A G9C U10C U11A

Aptazyme ON/OFF ratio, 1.15:
U7A U8A G9A U11G C13A
U7A U8A G9C U10A C12U
U7A U8A G9C U10A C12G C13A
U7A U8A G9C C13A
U7A U8A G9C C12U C13A

Aptazyme ON/OFF ratio, 1.02:
U7A U8A G9C U10C U11C C12U C13G
U7A U8A G9C U10C U11C C12U
U7A U8A G9C U10C C12U C13A
U7A U8A G9C U10C U11C C12G C13A
U7A U8A G9C U10C U11A C12A C13A
U7A U8A G9C U10C U11C C12A C13U

Aptazyme ON/OFF ratio, 1.69:
U7A U8A G9A U11G C12U

Aptazyme ON/OFF ratio, 1.42:
U7A U8A G9C C12U C13U

Aptazyme ON/OFF ratio, 1.29:
U7A U8A G9A U11G C13U
U7A U8A G9A U11G

Aptazyme ON/OFF ratio, 1.33:
U7A U8A G9A U11G C12G C13G

Aptazyme ON/OFF ratio, 1.18:
U7A U8A G9C U10A U11C C12G C13A
U7A U8A G9C U10A C13U
U7A U8A G9C U10A U11A C12G C13A
U7A U8A G9C C12G C13U
U7A U8A G9A U11G C12U C13G
U7A U8A G9C U10A U11A C12U C13G
U7A U8A G9C U10A U11G C12G C13A
U7A U8A G9C U10A U11G C12A C13G
U7A U8A G9C U10A C12A C13U

Aptazyme ON/OFF ratio, 1.37:
U7A U8A G9C U10A U11A C12A C13A

Aptazyme ON/OFF ratio, 1.22:
U7A U8A G9C C12A
U7A U8A G9A U11C C12A C13U
U7A U8A G9C
U7A U8A G9C U10A U11G C12U
U7A U8A G9A U11A C12U C13U

Aptazyme ON/OFF ratio, 1.14:
U7A U8A G9A U11C C12G C13G
U7A U8A G9A U11G C13G
U7A U8A G9C U10A U11C C12G C13G
U7A U8A G9A U11C C12A C13G
U7A U8A G9C U10C U11A C13A
U7A U8A G9C U10A U11G C12G C13U
U7A U8A G9C U10A U11A C12A C13U
U7A U8A G9C U10A U11G C12U C13U

Aptazyme ON/OFF ratio, 1.25:
U7A U8A G9C U10A C12G
U7A U8A G9C U10A U11G C12G C13G
U7A U8A G9A U11A C12G C13U

Aptazyme ON/OFF ratio, 1.28:
U7A U8A G9A U11A C12G C13G

Aptazyme ON/OFF ratio, 1.01:
U7A U8A G9C U10C U11C C12U C13A
U7A U8A G9C U10C U11C C12A C13G

Aptazyme ON/OFF ratio, 1.12:
U7A U8A G9C U10A U11C C12A C13A
U7A U8A G9C U10A U11C C12A C13G
U7A U8A G9A U11C C13G
U7A U8A G9C U10C C13U

Aptazyme ON/OFF ratio, 1.16:
U7A U8A G9C U10A U11C C12G
U7A U8A G9A U11C C12A
U7A U8A G9A U11G C12U C13A
U7A U8A G9C U10A C12G C13U
U7A U8A G9A U11G C12G C13A
U7A U8A G9C U10A C12A C13G

Aptazyme ON/OFF ratio, 1.06:
U7A U8A G9C U10C U11A C12G C13G
U7A U8A G9A U11C C12U
U7A U8A G9C U10C C12G C13U
U7A U8A G9C U10C U11A C12G
U7A U8A G9C U10C U11A C12A
U7A U8A G9C U10C U11A C12A C13U
U7A U8A G9A U11C C13A

Aptazyme ON/OFF ratio, 0.984:
U7A U8A G9C U10C U11C

Aptazyme ON/OFF ratio, 1.03:
U7A U8A G9A U11C
U7A U8A G9C U10C U11C C12G C13U
U7A U8A G9C U10C C12A
U7A U8A G9C U10C U11A C12U C13A
U7A U8A G9C U10C U11A C12A C13G
U7A U8A G9C C13G
U7A U8A G9C U10C U11C C13A

Aptazyme ON/OFF ratio, 1.8:
U7A U8A G9C U10C

Aptazyme ON/OFF ratio, 1.1:
U7A U8A G9C U10C U11A C12G C13U
U7A U8A G9A U11C C12G C13A
U7A U8A G9C C12G
U7A U8A G9A U11C C12G
U7A U8A G9C U10C C12U C13G
U7A U8A G9C U10C U11A C12U C13G
U7A U8A G9A U11C C13U
U7A U8A G9C U10A C12U C13G

Aptazyme ON/OFF ratio, 1.2:
U7A U8A G9A U11A C13A
U7A U8A G9C U10A U11C C12A C13U
U7A U8A G9C U10A C12A
U7A U8A G9C U10A U11A C12U C13A

Aptazyme ON/OFF ratio, 1.35:
U7A U8A G9A U11A C12U

Aptazyme ON/OFF ratio, 1.04:
U7A U8A G9C U10A U11C C13U
U7A U8A G9C U10A U11C
U7A U8A G9C U10C U11C C12G C13G
U7A U8A G9C U10C C12G
U7A U8A G9C U10A C12U C13U
U7A U8A G9C U10C C13A
U7A U8A G9C U10C C12A C13U
U7A U8A G9C U10C C12A C13A
U7A U8A G9C U10C C12A C13G

Aptazyme ON/OFF ratio, 1.19:
U7A U8A G9C U10A U11C C12U C13G
U7A U8A G9A U11A C13U
U7A U8A G9C U10A U11A C12G C13U
U7A U8A G9C U10A U11A C12U
U7A U8A G9C U10C U11A C13G
U7A U8A G9C C12G C13A
U7A U8A G9C U10A U11G C12G

Aptazyme ON/OFF ratio, 0.99:
U7A U8A G9C U10C C12G C13A
